{"source": "patent US11390894B2", "about": "“Biological processes for the production of aryl sulfates” (CysBio ApS, priority 2014, dated 2022)", "molecules": {"B1": {"name": "SULT1A1 Homo sapiens: aryl sulfotransferase SULT1A1 Homo sapiens (SEQ ID NO: 2) (protein, listed as Homo sapiens)", "chain": "MELIQDTSRPPLEYVKGVPLIKYFAEALGPLQSFQARPDDLLISTYPKSGTTWVSQILDMIYQGGDLEKCHRAPIFMRVPFLEFKAPGIPSGMETLKDTPAPRLLKTHLPLALLPQTLLDQKVKVVYVARNAKDVAVSYYHFYHMAKVHPEPGTWDSFLEKFMVGEVSYGSWYQHVQEWWELSRTHPVLYLFYEDMKENPKREIQKILEFVGRSLPEETVDFMVQHTSFKEMKKNPMTNYTTVPQEFMDHSISPFMRKGMAGDWKTTFTVAQNERFDADYAEKMAGCSLSFRSEL"}, "B2": {"name": "SULT1A1 Equus caballus: aryl sulfotransferase SULT1A1 Equus caballus (SEQ ID NO: 3) (protein, listed as Equus caballus)", "chain": "MELIQDTSRPPLKYVKGVPLIKYFAEALGPLQSFQARPDDLLISTYPKSGTTWVSEILDMIYHGGDLEKCRRAPIFIRVPFLEFKAPEIPSGVEVLKDTPAPRLLKTHLPLSLLPQTLLDQKVKVVYLARNAKDVAVSYYHFYRMAKVHPDPGTWDSFLEKFMAGEVSYGSWYKHVQEWWELSHTHPVLYLFYEDMKENPKKEIQKILEFVGRSLPEETLDRIVQHTSFKEMKKNPMANYSTIPCDIMDHNISAFMRKGIAGDWKNTFTVAQNEHFDTDYAEKMAGCKLSFRSEV"}, "B3": {"name": "SULT1A1 Canis lupus familiaris: aryl sulfotransferase SULT1A1 Canis lupus familiaris (SEQ ID NO: 5) (protein, listed as Canis lupus)", "chain": "MEDIPDTSRPPLKYVKGIPLIKYFAEALESLQDFQAQPDDLLISTYPKSGTTWVSEILDMIYQDGDVEKCRRAPVFIRVPFLEFKAPGIPTGLEVLKDTPAPRLIKTHLPLALLPQTLLDQKVKVVYVARNAKDVAVSYYHFYRMAKVHPDPDTWDSFLEKFMAGEVSYGSWYQHVQEWWELSHTHPVLYLFYEDMKENPKREIQKILKFVGRSLPEETVDLIVQHTSFKEMKNNSMANYTTLSPDIMDHSISAFMRKGISGDWKTTFTVAQNERFDADYAKKMEGCGLSFRTQL"}, "B4": {"name": "SULT1E1 Gallus gallus domesticus: aryl sulfotransferase SULT1E1 Gallus gallus domesticus (SEQ ID NO: 6) (protein, listed as Gallus gallus)", "chain": "MGNDEVIRQDLGCLYDIPLYKCFVAGWPQVEAFQARPDDLLIATYPKSGTTWLSEILDAIYHDGDLEKCRRDAIYNRVPFLEMKAPGILSGVEQLEKIPSPRLVKTHLPVHLLPASFQEKDCKVIYMARNAKDVVISYYYFYQMAKIHPDPGTLSEFLQAFMDGKVAYGSWYKHVKGWWEKRHEKRLLYLFYEDMKKDPRREIQKILQFLGKEVAEETVARILHHTSFQEMKKNPATNYETMPTELMDHSLSPFMRKGISGDWANHFTVAQNERFDQHYQQQMAGSDLCFQMEA"}, "B5": {"name": "SULT1A1 Sus scrofa domesticus: aryl sulfotransferase SULT1A1 Sus scrofa domesticus (SEQ ID NO: 4) (protein, listed as Sus scrofa)", "chain": "MEPVQDTYRPPLEYVKGVPLIKYFAEALGPLESFQAWPDDVLISTYPKSGTTWVSEILDLIYQGGDLQKCQRAPIFVRVPFLEFKIPGCPTGFELLKDTPAPRLLKTHLPLALLPQTLLDQKVKVVYVARNAKDVAVSYYHFYRMAKVHPNPGTWDSFLEDFMAGEVSYGSWYQHVQEWWELRHTHPVLYLFYEDMKENPKREIQKILEFVGRSLPEETVEDIVQHTSFQEMKNNAMTNYRTLPSDLLDHSISAFMRKGITGDWKSTFTVAQNERFEADYAEKMAGCNLRFRSEL"}, "B6": {"name": "SULT1A1 Homo sapiens, CysDNC: SULT1A1 Homo sapiens co-expressed with E. coli cysDNC (ATP sulfurylase and APS kinase) (protein, UniProt P50225 1-295, looked up)", "Sulfotransferase 1A1": "B1 chain with M223V", "modifications": "co-expressed with E. coli cysDNC"}, "B7": {"name": "SULT1A1 Homo sapiens, CysDNCQ: SULT1A1 Homo sapiens co-expressed with E. coli artificial operon cysDNCQ (plus PAP phosphatase cysQ) (protein, UniProt P50225 1-295, looked up)", "Sulfotransferase 1A1": "B1 chain with M223V", "modifications": "co-expressed with E. coli cysDNCQ"}}, "note": "Numbering of substitutions follows the chain as printed.", "data": [{"test_system": "kaempferol", "assay": "Percent conversion of substrate by E. coli cells expressing sulfotransferases", "assay_type": "cell-based, Escherichia coli", "conditions": "87 μM kaempferol, M9 medium, overnight 37° C.", "method": "(§1) The concentration of p-courmaric acid (pHCA) and zosteric acid in the supernatant was quantified by high performance (HPLC) and compared to chemical standards. HPLC was done on a Thermo setup using a HS-F5 column and mobile phases: 5 mM ammonium formate pH 4.0 (A) and acetonitrile (B) at 1.5 mL min-1, using a gradient elution starting at 5% B. From 0.5 min after injection to 7 min, the fraction of B increased linearly from 5% to 60%, and between 9.5 min and 9.6 the fraction of B decreased back to 5%, and remaining there until 12 min. pHCA and zosteric acid were quantified by measuring absorbance at 277 nm.\n(§2) Different sulfotransferases were examined for their substrate specificities against three substrates. We tested the sulfotransferases mentioned in example 1, as well as additional ones. The genes encoding these were cloned as described in example 1 using the primers shown in the table below from cDNA libraries of the respective organisms, except for the SULT1A1 from rat (Rattus norvegicus) codon-optimized for E. coli (described above). The resulting vectors were transformed into BL21(DE3)pLysS.\n(§3) The resulting strains were grown in M9 medium containing either 100 μM pHCA, 95 μM resveratrol or 87 M kaempferol. The cultures were grown overnight at 37° C., 300 rpm. The following day the supernatants were isolated and examined by HPLC as described in example 1.", "units": {"percent conversion of kaempferol": "%"}, "values": [{"molecule": "B1", "percent conversion of kaempferol": 97}, {"molecule": "B2", "percent conversion of kaempferol": 96}, {"molecule": "B3", "percent conversion of kaempferol": 60}, {"molecule": "B4", "percent conversion of kaempferol": 47}, {"molecule": "B5", "percent conversion of kaempferol": 45}]}, {"test_system": "resveratrol", "assay": "Percent conversion of substrate by E. coli cells expressing sulfotransferases", "assay_type": "cell-based, Escherichia coli", "conditions": "95 μM resveratrol, M9 medium, overnight 37° C.", "method": "as §1, §2, §3", "units": {"percent conversion of resveratrol": "%"}, "values": [{"molecule": "B1", "percent conversion of resveratrol": 36}, {"molecule": "B2", "percent conversion of resveratrol": 100}, {"molecule": "B3", "percent conversion of resveratrol": 61}, {"molecule": "B4", "percent conversion of resveratrol": 100}, {"molecule": "B5", "percent conversion of resveratrol": 88}]}, {"test_system": "pHCA", "assay": "Percent conversion of substrate by E. coli cells expressing sulfotransferases", "assay_type": "cell-based, Escherichia coli", "conditions": "100 μM pHCA, M9 medium, overnight 37° C.", "method": "as §1, §2, §3", "units": {"percent conversion of pHCA": "%"}, "values": [{"molecule": "B1", "percent conversion of pHCA": 39}, {"molecule": "B2", "percent conversion of pHCA": 21}, {"molecule": "B3", "percent conversion of pHCA": 34}, {"molecule": "B4", "percent conversion of pHCA": 17}, {"molecule": "B5", "percent conversion of pHCA": 8}]}, {"test_system": "pHCA", "assay": "Production of zosteric acid in E. coli from pHCA through heterologous expression of sulfotransferases", "assay_type": "cell-based, Escherichia coli", "conditions": "culture media; M9 glucose, 0.1 mM IPTG, 0.1 mM pHCA, four days of growth", "text": "A range of aryl sulfotransferases including SULT1A1 Rattus norvegicus (SEQ ID NO: 1), SULT1A1 Homo sapiens (SEQ ID NO: 2), SULT1A1 Equus caballus (SEQ ID NO: 3), SULT1A1 Sus scrofa domesticus (SEQ ID NO: 4), SULT1A1 Canis lupus familiaris (SEQ ID NO: 5) and SULT1E1 Gallus gallus domesticus (SEQ ID NO: 6) were expressed in Escherichia coli. […]. The nucleotide sequence of the gene encoding SEQ ID NO: 2 was codon optimized for expression in Escherichia coli (GeneArt, Life Technologies) and amplified by PCR using the primers in Table 1. The pETDuet-1 plasmid was digested with restriction endonucleases Ncol and Sal. The PCR products were then individually cloned into the plasmid pETDuet-1 using the Gibson reaction (New England Biolabs). The resulting plasmids were transformed into BL21(DE3)pLysS (Life Technologies).\n(§4) The strains were grown in M9 minimal media containing glucose as a carbon source, and 0.1 mM IPTG for induction of gene expression as well as 0.1 mM p-coumaric acid (pHCA). After four days of growth, samples were withdrawn by filtration and analyzed by HPLC.\nas §1\nZosteric acid was formed with an aryl sulfotransferase heterologously expressed in a microorganism exemplified by E. coli supplied with the substrate.", "units": {"Zosteric acid formed": "mM", "pHCA remaining": "mM"}, "values": [{"molecule": "B1", "Zosteric acid formed": 0.02, "pHCA remaining": 0.08}, {"molecule": "B2", "Zosteric acid formed": 0.01, "pHCA remaining": 0.09}, {"molecule": "B3", "Zosteric acid formed": 0.01, "pHCA remaining": 0.10}, {"molecule": "B4", "Zosteric acid formed": 0.01, "pHCA remaining": 0.08}, {"molecule": "B5", "Zosteric acid formed": 0.01, "pHCA remaining": 0.09}]}, {"test_system": "pHCA", "assay": "Zosteric acid production in E. coli expressing an aryl sulfotransferase in combination with cysDNC and cysQ", "assay_type": "cell-based, Escherichia coli", "conditions": "induction 0.1 mM IPTG; grown as in Example 1 (0.1 mM pHCA)", "method": "as §4, §1\n(§5) The plasmid pRSFDuet-1 (Life Technologies) was digested by the restriction endonucleases NdeI and BgIII. The gene cluster was inserted into the digested plasmid using the Gibson reaction (New England Biolabs). […] For the combined expression of cysDNC and cysQ in an artificial operon, cysDNCQ, the two parts were amplified by PCR from E. coli MG1655 chromosomal DNA using the primers shown in Table 3. Again the parts were inserted into the digested plasmid. […] The plasmid expressing SULT1A1 Homo sapiens (SEQ ID NO: 2) from example 1 was co-transformed into E. coli BL21(DE3)pLysS cells (Life Technologies) with either the plasmid expressing cysDNC or cysDNCQ.\n(§6) Cells were grown as in Example 1 and the supernatants were analyzed for product formation as in example 1. The strain expressing SULT1A1 in combination with cysDNCQ was also grown without the addition of IPTIG for induction.", "units": {"Zosteric acid formed": "mM", "pHCA remaining": "mM"}, "values": [{"molecule": "B1", "Zosteric acid formed": 0.02, "pHCA remaining": 0.08}, {"molecule": "B6", "Zosteric acid formed": 0.06, "pHCA remaining": 0.06}, {"molecule": "B7", "Zosteric acid formed": 0.09, "pHCA remaining": 0.04}]}, {"test_system": "pHCA", "assay": "Zosteric acid production in E. coli expressing an aryl sulfotransferase in combination with cysDNC and cysQ", "assay_type": "cell-based, Escherichia coli", "conditions": "induction None; grown as in Example 1 (0.1 mM pHCA)", "method": "as §4, §1, §5, §6", "units": {"pHCA remaining": "mM"}, "values": [{"molecule": "B7", "pHCA remaining": 0.10}]}]}
